Assays:
[1] = target: FcγRIIIa on NK cells (human (endogenous in NK cells)) (UniProt P08637)
[2] = target: FcγRIIIa on NK cells (human (endogenous in NK cells)) (UniProt P08637); assay: flow cytometry on cells; purified human NK cells incubated on ice with titrated monomeric antibody (0.03–10 µg/mL), detected with anti-F(ab′)2-Alexa Fluor 647

Chain of FcγRIIIa on NK cells (human (endogenous in NK cells)) (P08637 17-208): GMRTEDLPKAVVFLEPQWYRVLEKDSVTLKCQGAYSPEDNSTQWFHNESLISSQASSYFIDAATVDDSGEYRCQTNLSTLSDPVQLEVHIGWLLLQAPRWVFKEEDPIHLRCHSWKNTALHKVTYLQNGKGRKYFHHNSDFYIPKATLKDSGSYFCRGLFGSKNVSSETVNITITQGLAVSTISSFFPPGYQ

fold decrease in EC50 of NK cell-mediated ADCC (LDH release, 4 h, 10:1) against CAL51, compared with IgG1-GM and IgG1-DE [1]: 100 fold
fold decrease in EC50 of NK cell-mediated ADCC (LDH release, 4 h, 10:1) against CAL51, compared with IgG1-WT [1]: 4000 fold
fold greater KD than IgG1-WT (so in the source); stronger binding is meant [2]: 100 fold
Substance: anti-FRα IgG1-DE/GM (MOv18 variable regions, human IgG1 with S239D and I332E, glycomodified) (antibody)
